Paper PMC12640004
Where a chain is given by its changes, count along the chain named.

Molecular target: JrERF113-HIS (Juglans regia)
Assay: EMSA

B1: JrIPT1 bioProbe (wild type) (dsDNA)
DNA 1: ATCATACTGATGGAGGAGGGCGGTCCCGAATTTATATATATAGTTTCTAC
DNA 2: GTAGAAACTATATATATAAATTCGGGACCGCCCTCCTCCATCAGTATGAT
  binding result: binds

B2: JrIPT1 mbioProbe (GCC-box mutant) (dsDNA)
DNA 1: B1 DNA 1 with G16T, G18T, G19T, G20T, G22T, G23T
DNA 2: B1 DNA 2 with C28A, C29A, C31A, C32A, C33A, C35A
  binding result: no binding
